Laboratory results from patent US20240316154A1 (Eli Lilly, published 2024).

Assays:
Rat serum albumin = molecular target: T1, Rat serum albumin (rat, UniProt P02770 25-608); assay: SPR, SA on chip, 25 C
T1 construct: bought; immobilised on a CM5 chip by amine coupling; also called Rat SA

Pig serum albumin = molecular target: T2, Pig serum albumin (pig, UniProt P08835 25-607); assay: SPR, SA on chip, 25 C
T2 construct: bought; immobilised on a CM5 chip by amine coupling; also called Pig SA

Cow serum albumin = molecular target: T3, Cow serum albumin (cow, UniProt P02769 25-607); assay: SPR, SA on chip, 25 C
T3 construct: bought; immobilised on a CM5 chip by amine coupling; also called Cow SA

Mouse serum albumin = molecular target: T4, Mouse serum albumin (mouse, UniProt P07724 25-608); assay: SPR, SA on chip, 25 C
T4 construct: bought; immobilised on a CM5 chip by amine coupling; also called Mouse SA

[1] = molecular target: T5, Cynomolgus monkey serum albumin (cynomolgus monkey, UniProt A2V9Z4 25-608); assay: SPR, SA on chip, 25 C
T5 construct: bought; immobilised on a CM5 chip by amine coupling; also called Cyno SA

Dog serum albumin = molecular target: T6, Dog serum albumin (dog, UniProt P49822 25-608); assay: SPR, SA on chip, 25 C
T6 construct: bought; immobilised on a CM5 chip by amine coupling; also called Dog SA

Human serum albumin = molecular target: T7, Human serum albumin (human, UniProt P02768 25-609); assay: SPR, SA on chip, VHH 300 nM, 25 C
T7 construct: bought; immobilised on a CM5 chip by amine coupling; also called Human SA
Procedure: Immobilization of SA to a Series S Sensor Chip CM5 surface is performed according to the manufacturer's instructions (amine coupling kit BR-1000-50). […] Human SA is obtained from Sigma Aldrich (St. Louis, MO; Cat. No. A8763). […] Mouse SA is obtained from Sigma Aldrich (Cat. No. A3559). Rat SA is obtained from Sigma Aldrich (Cat. No. A4538). Pig SA is obtained from Sigma Aldrich (Cat. No. A4414). […] Cow SA is obtained from Sigma Aldrich (Cat. No. A7030). The various SAs are covalently immobilized through free amines onto a carboxymethyl dextran-coated sensor chip CM5 targeting a surface density of average approximately 77 (58-98) RU. Excess reactive groups on the surfaces (flow cell 1 and 2) are deactivated by injecting 70 μL of 1 M ethanolamine hydrochloride-NaOH, pH 8.5, at 10 μL/min.
VHH moieties are diluted in HBS-EP+buffer (10 mM HEPES, pH 7.6, 150 mM NaCl, 3 mM EDTA, and 0.05% Polysorbate 20) at concentrations of 300 nM. 150 μL of sample is individually injected sequentially across the immobilized SAs surface and is dissociated for 600 sec at a flow rate of 50 L/min at 25 C. […] The resulting sensorgrams are analyzed using Biacore 8K Insight Evaluation Software (version 2.0.15.12933) to calculate the dissociation rate (kd).

Row | binding result (Rat serum albumin) | binding result (Pig serum albumin) | binding result (Cow serum albumin) | binding result (Mouse serum albumin) | binding result [1] | binding result (Dog serum albumin) | koff (Human serum albumin) | Binder
1 | no binding (tested: 300 nM) | no binding (tested: 300 nM) | no binding (tested: 300 nM) | no binding (tested: 300 nM) | no binding (tested: 300 nM) | no binding (tested: 300 nM) |  | VHH moiety 13 (MC6.1C22-Y59E) (VHH) VHH: EVQLLESGGGLVQPGGSLRLSCAASGRYIDETAVAWFRQAPGKEREFVAGIGGGVDITEYADSVKGRFTISRDNSKNTLYLQMNSLRPEDTAVYYCAARPGRPLITSKVADLYPYWGQGTLVTVSS
2 | no binding (tested: 300 nM) | no binding (tested: 300 nM) |  | no binding (tested: 300 nM) | no binding (tested: 300 nM) | no binding (tested: 300 nM) |  | VHH moiety 23 (MC6.1C22-L104E) (VHH) VHH: EVQLLESGGGLVQPGGSLRLSCAASGRYIDETAVAWFRQAPGKEREFVAGIGGGVDITYYADSVKGRFTISRDNSKNTLYLQMNSLRPEDTAVYYCAARPGRPEITSKVADLYPYWGQGTLVTVSS
3 | no binding (tested: 300 nM) | no binding (tested: 300 nM) | no binding (tested: 300 nM) | no binding (tested: 300 nM) | no binding (tested: 300 nM) | no binding (tested: 300 nM) | 0.013 s⁻¹ | VHH moiety 14 (MC6.1C22-Y59Q) (VHH) VHH: EVQLLESGGGLVQPGGSLRLSCAASGRYIDETAVAWFRQAPGKEREFVAGIGGGVDITQYADSVKGRFTISRDNSKNTLYLQMNSLRPEDTAVYYCAARPGRPLITSKVADLYPYWGQGTLVTVSS
4 | no binding (tested: 300 nM) | no binding (tested: 300 nM) | no binding (tested: 300 nM) | no binding (tested: 300 nM) | no binding (tested: 300 nM) | no binding (tested: 300 nM) | 0.014 s⁻¹ | VHH moiety 27 (MC6.1C22-S107E) (VHH) VHH: EVQLLESGGGLVQPGGSLRLSCAASGRYIDETAVAWFRQAPGKEREFVAGIGGGVDITYYADSVKGRFTISRDNSKNTLYLQMNSLRPEDTAVYYCAARPGRPLITEKVADLYPYWGQGTLVTVSS
5 | no binding (tested: 300 nM) | no binding (tested: 300 nM) | no binding (tested: 300 nM) | no binding (tested: 300 nM) | no binding (tested: 300 nM) | no binding (tested: 300 nM) |  | VHH moiety 26 (MC6.1C22-L104T) (VHH) VHH: EVQLLESGGGLVQPGGSLRLSCAASGRYIDETAVAWFRQAPGKEREFVAGIGGGVDITYYADSVKGRFTISRDNSKNTLYLQMNSLRPEDTAVYYCAARPGRPTITSKVADLYPYWGQGTLVTVSS
6 | no binding (tested: 300 nM) | no binding (tested: 300 nM) |  | no binding (tested: 300 nM) | no binding (tested: 300 nM) | no binding (tested: 300 nM) |  | VHH moiety 24 (MC6.1C22-L104G) (VHH) VHH: EVQLLESGGGLVQPGGSLRLSCAASGRYIDETAVAWFRQAPGKEREFVAGIGGGVDITYYADSVKGRFTISRDNSKNTLYLQMNSLRPEDTAVYYCAARPGRPGITSKVADLYPYWGQGTLVTVSS
